In one assay the target is H3K9me3 mononucleosome (trimethyl-lysine at 9 (H3K9me3)). Put plainly: apparent K1/2 by EMSA.
The next assay addresses H3K9me0 mononucleosome. Put plainly: apparent K1/2 by EMSA.

B1: Chp2-WT (recombinant) (natural protein)
chain: MVKSADLDLMNSIISESDENFSPPPFTVEEAENSINNKSSTASLESPQNGSWHPSLYGLSVPEKTHIQNSLDLYSHGNSGSQKTHNVSFSCEIRKVKSSKLSPISNMEDSEDKKEEDESSSYKNEFKSSSSASVSSNFEKTSGSDDHNSQSPVPLNEGFEYIASSGSEDKNSDEEFAVEMILDSRMKKDGSGFQYYLKWEGYDDPSDNTWNDEEDCAGCLELIDAYWESRGGKPDLSSLIRLTRSRARSSNEASYVEKDESSNSDDSISYKRRRSRNAANRITDYVDSDLSESSMKEKQSKIEKYMKSDKSSKNFKPPFQKKSWEDLVDCVKTVQQLDNGKLIAKIKWKNGYVSTHDNIIIHQKCPLKIIEYYEAHIKFT
Consider B1, for which the Kd in the assay with H3K9me3 mononucleosome was 66 nM; with H3K9me0 mononucleosome, 134 nM.

B2: Chp2 W199A (recombinant) (natural protein)
chain: MVKSADLDLMNSIISESDENFSPPPFTVEEAENSINNKSSTASLESPQNGSWHPSLYGLSVPEKTHIQNSLDLYSHGNSGSQKTHNVSFSCEIRKVKSSKLSPISNMEDSEDKKEEDESSSYKNEFKSSSSASVSSNFEKTSGSDDHNSQSPVPLNEGFEYIASSGSEDKNSDEEFAVEMILDSRMKKDGSGFQYYLKAEGYDDPSDNTWNDEEDCAGCLELIDAYWESRGGKPDLSSLIRLTRSRARSSNEASYVEKDESSNSDDSISYKRRRSRNAANRITDYVDSDLSESSMKEKQSKIEKYMKSDKSSKNFKPPFQKKSWEDLVDCVKTVQQLDNGKLIAKIKWKNGYVSTHDNIIIHQKCPLKIIEYYEAHIKFT
As for B2, the figures for the Kd in the assay with H3K9me3 mononucleosome and with H3K9me0 mononucleosome were 145 nM and 135 nM, respectively.

For the origin of these results see PMC11472046 (2024).
